This note sets out measurements from paper PMC2464603, “Roles of Arabidopsis WRKY3 and WRKY4 Transcription Factors in Plant Responses to Pathogens”.

One series has as its target WRKY3 (Arabidopsis, UniProt Q9ZQ70 1-513). Put plainly: EMSA; not stated; DNA-binding assays as previously described (ref 15). Conditions: protein: recombinant.
The target of the next series is WRKY4 (Arabidopsis, UniProt Q9XI90 1-514). Described as above. Conditions: protein: recombinant.

Positions count from the first letter of the chain named.

Sequence of WRKY3 (Q9ZQ70 whole entry): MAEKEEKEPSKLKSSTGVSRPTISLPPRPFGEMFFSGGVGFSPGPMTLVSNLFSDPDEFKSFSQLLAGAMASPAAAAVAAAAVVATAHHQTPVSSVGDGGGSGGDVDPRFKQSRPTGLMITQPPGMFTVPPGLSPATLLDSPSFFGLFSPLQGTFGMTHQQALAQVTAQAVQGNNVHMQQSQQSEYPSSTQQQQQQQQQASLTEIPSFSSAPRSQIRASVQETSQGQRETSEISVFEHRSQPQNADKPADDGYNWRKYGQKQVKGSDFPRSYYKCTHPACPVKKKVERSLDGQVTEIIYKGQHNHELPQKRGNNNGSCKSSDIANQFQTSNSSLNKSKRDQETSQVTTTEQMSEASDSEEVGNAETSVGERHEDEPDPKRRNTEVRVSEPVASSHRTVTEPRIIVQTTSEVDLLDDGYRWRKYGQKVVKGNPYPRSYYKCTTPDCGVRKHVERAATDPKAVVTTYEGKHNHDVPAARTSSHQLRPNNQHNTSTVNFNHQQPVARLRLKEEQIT
Sequence of WRKY4 (Q9XI90 whole entry): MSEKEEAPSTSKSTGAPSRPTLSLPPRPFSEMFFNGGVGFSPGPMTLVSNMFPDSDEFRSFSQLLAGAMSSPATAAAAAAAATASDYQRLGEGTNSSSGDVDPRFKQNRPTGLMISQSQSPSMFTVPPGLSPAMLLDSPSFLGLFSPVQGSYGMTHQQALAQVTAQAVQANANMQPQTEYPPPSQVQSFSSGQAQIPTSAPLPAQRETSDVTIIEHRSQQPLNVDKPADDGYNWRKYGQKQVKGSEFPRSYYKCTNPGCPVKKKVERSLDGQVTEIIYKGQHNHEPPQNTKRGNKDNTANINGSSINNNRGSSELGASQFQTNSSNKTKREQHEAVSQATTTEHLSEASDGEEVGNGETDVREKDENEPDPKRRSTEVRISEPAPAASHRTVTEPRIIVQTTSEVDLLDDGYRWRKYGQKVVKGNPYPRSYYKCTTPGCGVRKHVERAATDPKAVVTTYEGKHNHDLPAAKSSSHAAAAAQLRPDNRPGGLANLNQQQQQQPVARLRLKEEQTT

B1: Pchn0 (dsDNA)
DNA 1: GGAACTTGACCTTGACCTTAGGGCTGCAGGAATTCG
DNA 2: CGAATTCCTGCAGCCCTAAGGTCAAGGTCAAGTTCC
For B1, the binding result with WRKY3 and with WRKY4 was “binds” in each case.

B2: mPchn0 (dsDNA)
DNA 1: B1 DNA 1 with C10A, C16A
DNA 2: B1 DNA 2 with G21T, G27T
Take B2: the binding result with WRKY3 was “no binding”.
